Assay results taken from patent US20110124572A1, “SYNDECAN-4 IS A REGULATOR OF RAC1-GTP” (priority 2008, published 2011).
Several values for one entry are separate records, joined by “and”; a condition that tells them apart may be missing. Identical values can stand only once.

Assays:
[1] = system: MCF-7 cells; assay: Cell migration assay (time-lapse) on fibronectin; type: cell-based, human; settings: MCF-7 line expressing the syndecan-4 variant, fibronectin
Description: (§1) The MCF-7 breast adenocarcinoma cells were obtained from ATCC, cultured in DMEM:F12 (Cambrex, Walkersville, Md., USA) supplemented with 10% fetal bovine serum (FBS) (Gibco, Bethesda, Md., USA), otherwise stated. The stably transfected cell lines were propagated in DMEM:F12 medium supplemented with 10% FBS and 200 μg/ml G418 (Cambrex, Walkersville, Md., USA). The cell lines were seeded onto glass coverslips or plastic dishes coated for 2 h with 10 μg/ml fibronectin (Sigma-Aldrich, St. Louis, Mo., USA). Scratch-wound assays were performed on stable transfected Syndecan-4 wild, Ser179Ala and Ser179Glu cells at 80% confluency. The cultures were scratched with a sterile P10 pipette tip 3-4 times in parallel lines. Images were taken 12, 24, 36 and 48 h following wounding.
In the cell migration assay 60% confluent MCF7 cells or the stably transfected lines were stimulated by 1 μM phorbol-12-myristate-13-acetate (PMA; from Sigma-Aldrich St. Louis, Mo., USA), otherwise stated. The images were taken using 10×, 20×0.3 objective at 3-min intervals for 2 h using inverted microscope (Leica) and organized into time-lapse movies in Adobe ImageReady® v. 8.
Results of the previous scratch-wound assay gave a hint that the Ser179Glu cells gained a migratory phenotype. […]

[2] = system: Rac1; assay: Rac1 GTPase pulldown assay (Rac1-GTP level); type: cell-based, human; settings: for relative Rac1-GTP level: relative to non-treated wt-syndecan-4; for reduction of activated Rac1 (GTP-Rac1) level: Gö6976 treatment
Description: (§2) Rac1 activity was characterised by applying RAC-activation kit purchased from Millipore (Upstate) and it was used according to the manufacturer's prescription. Briefly, p21-binding domain of PAK-1 was fused to agarose beads, which specifically binds to and precipitates Rac-GTP and Cdc42-GTP from cell lysates. Cells were harvested at 70% confluency of 25 ml flasks. The wild type Syndecan-4, Ser179Ala and Ser179Glu cells were treated for 60 minutes with 1 μM PMA (Sigma-Aldrich), or 500 nM rottlerin (Sigma-Aldrich), or 10 nM Gö6976 (Biosource, Camarillo, Calif., USA). The active Rac1 was detected by Western blotting using mouse anti-Rac1 antibody (Upstate). To test whether GST-Pak1-Rac/Cdc42-binding domain could pull syndecan-4 down, the blot was probed with rabbit polyclonal anti-syndecan-4 or mouse monoclonal anti-GFP antibody.

[3] = system: GTP-Rac/Cdc42-PAK complex; assay: Pull-down of syndecan-4 by Rac1/CDC42-binding domain of PAK; parameters: species or system human; settings: PAK-PKB pull-down, no γ-S GTP
Description: as §2
We tested whether the protein complex pulled down with the Rac1/CDC 42-binding domain of PAK (PAK-PKB) used in the Rac1 assay contained syndecan-4. Parallel filter of the Rac1 assay was probed with anti-syndecan-4 or anti-GFP antisera. The syndecan-4-GFP monomers migrating with 55 kDa relative electrophoretic mobility gave strong signals (FIG. 6). The amount of pulled-down syndecan-4 was in accordance with Rac1 level detected in the different syndecan-4 constructs (FIG. 6). […] When γ-S GTP was applied to the cell lysates to equalize the pulled-down Rac1-GTP level there was no difference in the amount of pulled-down syndecan-4 variants (FIG. 6). So, the affinity of the different syndecan-4 mutants is the same to the GTP-Rac/Cdc42-PAK complex. […]
We tested syndecan-4 whether it was pulled down by the Rac1/CDC 42-binding domain of PAK (PAK-PKB) used in the Rac1 assay. The syndecan-4-GFP monomers were detected as a 55 kDa relative electrophoretic mobility band probed with anti-syndecan-4 or anti-GFP antisera. […] The amount of pulled-down syndecan-4 was in accordance with Rac1 level detected in the different syndecan-4 constructs (FIG. 6). […]

[4] = system: MCF-7 cells; assay: Scratch-wound assay; type: cell-based, human; settings: for time to closure of the scratch gap: fibronectin, scratched at 80% confluence
Description: as §1
The wt-syndecan-4, Ser179Ala, and Ser179Glu lines were tested how they close the scratched wound on fibronectin substratum. At 80% confluence the cultures were scratch-wounded and healing was monitored. Still images were captured at the indicated time points (FIG. 1). In monolayers of the wt-syndecan-4 and the Ser179Ala lines the wounds healed from the edges, i.e. progenies of cell division narrowed the scratch but kept tight contact with the cell layer. […] The gaps closed in every case almost at the same time, in 42 hour. There was no difference in the growth rate of the different lines measured by SRB assay (data not shown).

[5] = molecular target: T1, Tiam-1 (Homo sapiens, UniProt Q13009); assay: Immunoprecipitation with anti-Tiam-1; type: binding; settings: for Rac1 in the Tiam-1 precipitate: lysate of cells expressing the variant
T1 construct: we tested whether syndecan-4 can be co-immunoprecipitated by anti-Tiam-1; endogenous in cells; host or cells: MCF-7 lines expressing wt, Ser179Ala or Ser179Glu syndecan-4-GFP (RIPA lysates, GDP- or γ-S-GTP-saturated)
Description: In brief, 70% confluent cultures of 25 mL flask were detached, pelleted and following 2 times washing with PBS. The pellet were lysed in RIPA buffer then centrifuged and the supernatant was pre-cleared by addition of 5 μL of protein A/G-sepharose beads slurry (Pierce) for 2 hours, then the supernatant was incubated with the antibody of interest for 24 hours. 10 μL of protein A/G slurry was added for 2 hours, collected by pulse centrifugation, washed 3 times with lysis buffer, resuspended in 2×SDS loading buffer subjected to SDS-PAGE, followed by immunoblotting with the appropriate antibodies.
Since Tiam-1 is a Rac1-GEF (GTP exchange factor) and it could be pulled down by PAK-PKB (Mendoza-Naranjo et al., 2006) we tested whether syndecan-4 can be co-immunoprecipitated by anti-Tiam-1. The syndecan-4 chimeras were detected by anti-syndecan-4 and anti-GFP antisera at 55 kDa and 90 kDa length, which were correspondent to the monomer and dimmer forms, respectively. Because the co-sedimentation of syndecan-4 by PAK-PKB was GDP-GTP dependent we tested if the GDP or GTP had effect for the amount of the anti-Tiam-1-co-immunoprecipitated syndecan-4 forms.
PDZ domain of Tiam-1 was reported to bind peptides containing amino acid sequence of FYA (Songyang et al., 1997) that is part of the cytoplasmic segment of syndecan-4. Therefore syndecan-4 seemed a good candidate to interact with Tiam-1. In the immunoprecipitate of Tiam-1 syndecan-4 variants were detected by anti-syndecan-4 or anti-GFP antisera at 55 kDa length, which was correspondent to the monomer forms. There was no significant difference in the binding of Tiam-1 and syndecan-4 variants in the GDP or γ-S GTP saturated cases.
Considering that phospho-syndecan-4 down-regulates the Rac1 activity consequently Rac1 was also tested in the Tiam-1 precipitate to study the nature of inhibition. If the Rac1 activity were regulated by direct interaction of syndecan-4 we might expect a trapped intermedier as it was found in the case of Brefeldin A (Renault et al., 2003).

T1 sequence (Q13009 whole entry): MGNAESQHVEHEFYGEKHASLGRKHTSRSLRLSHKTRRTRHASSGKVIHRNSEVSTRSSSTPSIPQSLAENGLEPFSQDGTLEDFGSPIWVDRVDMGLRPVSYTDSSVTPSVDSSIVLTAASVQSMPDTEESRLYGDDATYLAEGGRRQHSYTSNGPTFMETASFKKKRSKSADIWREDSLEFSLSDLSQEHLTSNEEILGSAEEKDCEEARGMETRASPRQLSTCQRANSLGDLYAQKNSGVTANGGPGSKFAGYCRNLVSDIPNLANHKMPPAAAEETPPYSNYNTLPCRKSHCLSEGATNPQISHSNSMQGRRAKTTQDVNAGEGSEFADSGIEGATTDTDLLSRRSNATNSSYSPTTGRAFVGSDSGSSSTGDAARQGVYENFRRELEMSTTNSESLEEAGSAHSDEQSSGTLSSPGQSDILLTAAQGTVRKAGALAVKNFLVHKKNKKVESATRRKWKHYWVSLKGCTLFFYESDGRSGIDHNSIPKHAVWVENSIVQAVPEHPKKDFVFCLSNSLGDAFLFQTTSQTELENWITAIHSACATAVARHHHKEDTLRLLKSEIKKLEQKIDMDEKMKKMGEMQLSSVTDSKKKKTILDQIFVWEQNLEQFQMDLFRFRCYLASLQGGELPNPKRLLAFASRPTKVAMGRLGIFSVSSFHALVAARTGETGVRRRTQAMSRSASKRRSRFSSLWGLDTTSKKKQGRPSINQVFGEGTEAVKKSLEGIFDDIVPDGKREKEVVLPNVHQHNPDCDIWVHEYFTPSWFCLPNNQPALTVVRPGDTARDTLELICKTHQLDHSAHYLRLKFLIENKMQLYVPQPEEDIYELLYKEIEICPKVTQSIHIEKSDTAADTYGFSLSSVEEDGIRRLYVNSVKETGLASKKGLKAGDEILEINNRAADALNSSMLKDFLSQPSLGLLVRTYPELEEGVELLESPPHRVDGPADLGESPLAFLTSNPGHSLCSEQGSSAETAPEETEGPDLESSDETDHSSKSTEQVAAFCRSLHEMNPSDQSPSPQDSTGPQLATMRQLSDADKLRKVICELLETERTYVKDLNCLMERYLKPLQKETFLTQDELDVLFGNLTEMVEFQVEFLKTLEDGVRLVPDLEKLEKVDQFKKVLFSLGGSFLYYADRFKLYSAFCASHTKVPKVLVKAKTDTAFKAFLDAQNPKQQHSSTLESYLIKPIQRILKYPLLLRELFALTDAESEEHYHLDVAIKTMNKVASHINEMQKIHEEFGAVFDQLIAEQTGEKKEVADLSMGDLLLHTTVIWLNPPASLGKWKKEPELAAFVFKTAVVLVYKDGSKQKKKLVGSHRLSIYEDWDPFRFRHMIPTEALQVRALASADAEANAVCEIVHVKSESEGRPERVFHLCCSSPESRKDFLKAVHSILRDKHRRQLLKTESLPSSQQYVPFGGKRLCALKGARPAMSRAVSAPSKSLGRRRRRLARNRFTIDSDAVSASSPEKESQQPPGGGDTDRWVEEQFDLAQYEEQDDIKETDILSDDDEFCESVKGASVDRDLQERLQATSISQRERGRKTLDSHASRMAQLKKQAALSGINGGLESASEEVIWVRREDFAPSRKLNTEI

B1: wt-syndecan-4: human syndecan-4 with GFP inserted at position 131, stably expressed in MCF-7 cells (protein)
chain: ESIRETEVIDPQDLLEGRYFSGALPDDEDVVGPGQESDDFELSGSGDLDDLEDSMIGPEVVHPLVPLDNHIPERAGSGSQVPTEPKKLEENEVIPKRISPVEESEDVSNKVSMSSTVQGSNIFERTEVLAALIVGGIVGILFAVFLILLLMYRMKKKDEGSYDLGKKPIYKKAPTNEFYA
modifications: left off: large carriers
notes: human syndecan-4 with GFP inserted at position 131, stably expressed in MCF-7 cells
In the case of B1, the migration ([1]; 1 μM PMA) is reported as 0.3±0.1 μm/min and 0.3 μm/min, the “relative Rac1-GTP level” value ([2]; 10 nM Gö6976 60 min) is reported as 0.25 ± 0.03 and the “relative Rac1-GTP level” value ([2]; 1 μM PMA 60 min) is reported as 0.25 and 0.25 ± 0.05. The “reduction of activated Rac1 (GTP-Rac1) level” value [2] was 4.2±0.4 fold, the “relative Rac1-GTP level” value ([2]; nt (non-treated)) was 1 and the “amount of pulled-down syndecan-4, less than from the Ser179Ala line” value [3] was “approximately 20%”. For the same molecule, the “time to closure of the scratch gap” value [4] was 42 h, the “syndecan-4 form co-immunoprecipitated by anti-Tiam-1” value ([5]; cell lysate saturated by GDP) was “dominant” and the “Rac1 in the Tiam-1 precipitate” value [5] was “observed”.

B2: Ser179Ala: phosphodefective Ser179 to Ala mutant of human syndecan-4-GFP, expressed in MCF-7 cells (protein, UniProt P31431 19-198, looked up, variant S179A)
Syndecan-4: ESIRETEVIDPQDLLEGRYFSGALPDDEDVVGPGQESDDFELSGSGDLDDLEDSMIGPEVVHPLVPLDNHIPERAGSGSQVPTEPKKLEENEVIPKRISPVEESEDVSNKVSMSSTVQGSNIFERTEVLAALIVGGIVGILFAVFLILLLMYRMKKKDEGAYDLGKKPIYKKAPTNEFYA
modifications: GFP inserted at position 131
notes: phosphodefective Ser179 to Ala mutant of human syndecan-4-GFP, expressed in MCF-7 cells
For B2, the “relative Rac1-GTP level” value ([2]; 10 nM Gö6976 60 min) was 1±0.1 and 1 ± 0.01, the “relative Rac1-GTP level” value ([2]; 1 μM PMA 60 min) was 0.46 ± 0.05 and the “relative Rac1-GTP level” value ([2]; nt (non-treated)) was 1.9±0.15. The “amount of pulled-down syndecan-4, more than the wt-syndecan-4” value [3] was “approximately 20%”, the “time to closure of the scratch gap” value [4] was 42 h and the “syndecan-4 form co-immunoprecipitated by anti-Tiam-1” value ([5]; cell lysate saturated by GDP) was “dominant”. The “Rac1 in the Tiam-1 precipitate” value [5] was “observed”.

B3: Ser179Glu: phosphomimetic Ser179 to Glu mutant of human syndecan-4-GFP, expressed in MCF-7 cells (protein, UniProt P31431 19-198, looked up, variant S179E)
Syndecan-4: ESIRETEVIDPQDLLEGRYFSGALPDDEDVVGPGQESDDFELSGSGDLDDLEDSMIGPEVVHPLVPLDNHIPERAGSGSQVPTEPKKLEENEVIPKRISPVEESEDVSNKVSMSSTVQGSNIFERTEVLAALIVGGIVGILFAVFLILLLMYRMKKKDEGEYDLGKKPIYKKAPTNEFYA
modifications: GFP inserted at position 131
notes: phosphomimetic Ser179 to Glu mutant of human syndecan-4-GFP, expressed in MCF-7 cells
For B3, the migration ([1]; nt (non-treated)) was 0.4±0.1 μm/min, the “relative Rac1-GTP level” value ([2]; 10 nM Gö6976 60 min) was 0.06 ± 0.02 and the “relative Rac1-GTP level” value ([2]; 1 μM PMA 60 min) was 0.9±0.2 and 0.95 ± 0.06. The “reduction of activated Rac1 (GTP-Rac1) level” value [2] was 16±2 fold, the “decrease of the Rac1-GTP level” value ([2]; expression of the variant, untreated) was 1.5 fold and the “relative Rac1-GTP level” value ([2]; nt (non-treated)) was 0.6±0.1. The “amount of pulled-down syndecan-4” value [3] was “hardly detectable”, the “cell motility in the scratched area” value ([4]; by 12 hours following wounding) was “enhanced cell motility” and the “time to closure of the scratch gap” value [4] was 42 h. For the same molecule, the “syndecan-4 form co-immunoprecipitated by anti-Tiam-1” value ([5]; γ-S GTP saturated lysate) was “detected abundantly”.
